Assay results taken from patent publication US10919943B2, “Mutant proteins enabling agrochemical control of plant gene expression” (The Regents of the University of California, priority 2016, dated 2021).
Marks after values point to notes of the source that are not given here.

Assay: Phosphatase activity of recombinant GST-HAB1 proteins (4-methylumbeliferyl phosphate)
Format: biochemical
Details: 1 μg protein, percent control (GST-HAB1); FIG. 7
From the text: In the presence of ABA, wild type PYR1 binds to HAB1 and docks into its active site, which inhibits its enzymatic activity by blocking access of substrates. To characterize the orthogonal PYR1^! and HAB1^! interaction biochemically, we produced recombinant forms of each protein in E. coli, along with the wild type form, and tested the wild type and orthogonal mutant for their ability to inhibit HAB1 and HAB1^! activities in vitro. We cloned PYR1^! into pET28 to generate 6×-His tagged receptor and cloned HAB1^! into pGEX-4T-1 to create a GST-fusion protein. The previously constructed (S.-Y. Park et al., 2009) wild type 6×-His-PYR1 and GST-HAB1 constructs were used for producing recombinant wild type proteins. The 6×-His-tagged receptors and GST-tagged PP2Cs were expressed and purified as previously described. […] The plates were read using a Victor 2 plate reader (PerkinElmer) (355 nm excitation, 460 nm emission) and assays run in triplicate. The PP2C activity values reported are expressed as percent control values, which were calculated by including the carrier solvent (1% DMSO) and the specific receptor assayed, but no ligand. […]
To characterize HAB1^!-3 and HAB1* in vitro, we cloned them into pGEX-4T-1 to create GST-fusion proteins. […] The PP2C activity values reported are expressed as percent control (GST-HAB1) from triplicate measurements.

B1: HAB1*: catalytically inactive orthogonal pentuple HAB1 mutant (protein, listed as Arabidopsis thaliana)
chain: MTPAVAMTLSLAANTMCESSPVEITQLKNVTDAADLLSDSENQSFCNGGTECTMEDVSELEEVGEQDLLKTLSDTRSGSSNVFDEDDVLSVVEDNSAVISEGLLVVDAGSELSLSNTAMEIDNGRVLATAIIVGESSIEQVPTAEVLIAGVNQDTNTSEVVIRLPDENSNHLVKGRSVYELDCIPLWGTVSIQGNASEMEAAFAVSPHFLKLPIKMLMGDHEGMSPSLTHLTGHFFGVYDGHGGHKVADYCRDRLHFALAEEIERIKDELCKRNTGEGRQVQWDKVFTSCFLTVDGEIEGKIGRAVVGSSDKVLEAVADETVGSTAVVALVCSSHIVVSNCGDSRAVLFRGKEAMPLSVDHKPDREDEYARIENAGGKVIQWQGARVFGRLAMSRSIGDRYLKPYVIPEPEVTFMPRSREDECLILASDGLWDVMNNQEVCEIARRRILMWHKKNGAPPLAERGKGIDPACQAAADYLSMLALQKGSKDNISIIVIDLKAQAKFKTRT
  catalytic activity in vitro: Neither HAB1^!-3 or HAB1* display detectable catalytic activity
